# Data from patent publication US20230212319A1, “NOVEL ANTIGEN BINDING DOMAINS AND SYNTHETIC ANTIGEN RECEPTORS INCORPORATING THE SAME” (University of Southern California, priority 2020, published 2023).
# B1: SEQ ID NO: 22253: bispecific SAR on CD19 targeted SIR backbone comprising the receptor binding domain of the ligand APRIL (protein)
# chain: MALPVTALLLPLALLLHAARPDIQMTQSPSSLSASVGDRVTITCKASDHINNWLAWYQQKPGQAPKLLIYGATTLETGVPSRFSGSGSGTDYTLTISSLQPEDFATYYCQQSWNTPWTFGQGTKLEIKRLEDLKNVFPPEVAVFEPSEAEISHTQKATLVCLATGFYPDHVELSWWVNGKEVHSGVCTDPQPLKEQPALNDSRYCLSSRLRVSATFWQNPRNHFRCQVQFYGLSENDEWTQDRAKPVTQIVSAEAWGRADCGFTSESYQQGVLSATILYEILLGKATLYAVLVSALVLMAMVKRKDSRGRAKRSGSGATNFSLLKQAGDVEENPGPTSATMDWIWRILFLVGAATGAHSGPVLHLVPINATSKDDSDVTEVMWQPALRRGRGLQAQGYGVRIQDAGVYLLYSQVLFQDVTFTMGQVVSREGQGRQETLFRCIRSMPSHPDRAYNSCYSAGVFHLHQGDILSVIIPRARAKLNLSPHGTFLGFVKLGSGGGGSGGGGSGGGGSFEQVQLQQPGAELVKPGASVKMSCKASGYAFSSYWINWMKQKPGQGLEWIGQIYPGDGDTNYNGKFKGRATLTADTSSSTAYMQLSSLTSEDSAVYFCARSITTVVGCAMDYWGQGTSVTVSSTRIQNPDPAVYQLRDSKSSDKSVCLFTDFDSQTNVSQSKDSDVYITDKCVLDMRSMDFKSNSAVAWSNKSDFACANAFNNSIIPEDTFFPSPESSCDVKLVEKSFETDTNLNFQNLSVIGFRILLLKVAGFNLLMTLRLWSSRAKRSGSGVKQTLNFDLLKLAGDVESNPGPSRGHMTEYKPTVRLATRDDVPRAVRTLAAAFADYPATRHTVDPDRHIERVTELQELFLTRVGLDIGKVWVADDGAAVAVWTTPESVEAGAVFAEIGPRMAELSGSRLAAQQQMEGLLAPHRPKEPAWFLATVGVSPDHQGKGLGSAVVLPGVEAAERAGVPAFLETSAPRNLPFYERLGFTVTADVEVPEGPRTWCMTRKPGA
# B2: SEQ ID NO: 22252: bispecific SAR on CD19 targeted SIR backbone comprising the receptor binding domain of the ligand 4-1BB (protein)
# chain: MALPVTALLLPLALLLHAARPDIQMTQSPSSLSASVGDRVTITCKASDHINNWLAWYQQKPGQAPKLLIYGATTLETGVPSRFSGSGSGTDYTLTISSLQPEDFATYYCQQSWNTPWTFGQGTKLEIKRLEDLKNVFPPEVAVFEPSEAEISHTQKATLVCLATGFYPDHVELSWWVNGKEVHSGVCTDPQPLKEQPALNDSRYCLSSRLRVSATFWQNPRNHFRCQVQFYGLSENDEWTQDRAKPVTQIVSAEAWGRADCGFTSESYQQGVLSATILYEILLGKATLYAVLVSALVLMAMVKRKDSRGRAKRSGSGATNFSLLKQAGDVEENPGPTSATMDWIWRILFLVGAATGAHSGPGLLDLRQGMFAQLVAQNVLLIDGPLSWYSDPGLAGVSLTGGLSYKEDTKELVVAKAGVYYVFFQLELRRVVAGEGSGSVSLALHLQPLRSAAGAAALALTVDLPPASSEARNSAFGFQGRLLHLSAGQRLGVHLHTEARARHAWQLTQGATVLGLFRVTPEIPAGLPSPRSEGSGGGGSGGGGSGGGGSFEQVQLQQPGAELVKPGASVKMSCKASGYAFSSYWINWMKQKPGQGLEWIGQIYPGDGDTNYNGKFKGRATLTADTSSSTAYMQLSSLTSEDSAVYFCARSITTVVGCAMDYWGQGTSVTVSSTRIQNPDPAVYQLRDSKSSDKSVCLFTDFDSQTNVSQSKDSDVYITDKCVLDMRSMDFKSNSAVAWSNKSDFACANAFNNSIIPEDTFFPSPESSCDVKLVEKSFETDTNLNFQNLSVIGFRILLLKVAGFNLLMTLRLWSSRAKRSGSGVKQTLNFDLLKLAGDVESNPGPSRGHMTEYKPTVRLATRDDVPRAVRTLAAAFADYPATRHTVDPDRHIERVTELQELFLTRVGLDIGKVWVADDGAAVAVWTTPESVEAGAVFAEIGPRMAELSGSRLAAQQQMEGLLAPHRPKEPAWFLATVGVSPDHQGKGLGSAVVLPGVEAAERAGVPAFLETSAPRNLPFYERLGFTVTADVEVPEGPRTWCMTRKPGA
# B3: CD8SP-BCMA-FHVH-93-G4S-hu-mROO5-vL-[hTCRb-S57C]-F-P2A-IgHSP-CD20-VHH-USC1-2HCD26-G4S-AFP-Va-14-3-AI-[hTCRa-T48C]-F-F2A-PAC (protein)
# chain: MALPVTALLLPLALLLHAARPACEVQLLESGGGLIQPGGSLRLSCAASGFTFSSHAMTWVRQAPGKGLEWVSAISGSGDYTHYADSVKGRFTISRDNSKNTVYLQMNSLRAEDSAVYYCAKDEDGGSLLGHRGQGTLVTVSSGTGGGGSGGGGSGGGGSEFDIQMTQSPSSLSASVGDRVTITCKASDHINNWLAWYQQKPGQAPKLLIYGATTLETGVPSRFSGSGSGTDYTLTISSLQPEDFATYYCQQSWNTPWTFGQGTKLEIKRLEDLKNVFPPEVAVFEPSEAEISHTQKATLVCLATGFYPDHVELSWWVNGKEVHSGVCTDPQPLKEQPALNDSRYCLSSRLRVSATFWQNPRNHFRCQVQFYGLSENDEWTQDRAKPVTQIVSAEAWGRADCGFTSESYQQGVLSATILYEILLGKATLYAVLVSALVLMAMVKRKDSRGRAKRSGSGATNFSLLKQAGDVEENPGPTSATMDWIWRILFLVGAATGAHSGPEVQLVESGGGLVQAGGSLRLSCAASGRTFSMGWFRQAPGKEREFVAAITYSGGSPYYADSVKGRFTISRDNAKNTVYLQMNSLKPEDTAVYYCAANPTYGSDWNAENWGQGTQVTVSSGSGGGGSGGGGSGGGGSFEQKEVEQNSGPLSVPEGAIASLNCTYSDRGSQSFFWYRQYSGKSPELIMSIYSNGDKEDGRFTAQLNKASQYVSLLIRDSQPSDSATYLCAVNSQSGVALNFGKGTSLLVTPHIQNPDPAVYQLRDSKSSDKSVCLFTDFDSQTNVSQSKDSDVYITDKCVLDMRSMDFKSNSAVAWSNKSDFACANAFNNSIIPEDTFFPSPESSCDVKLVEKSFETDTNLNFQNLSVIGFRILLLKVAGFNLLMTLRLWSSRAKRSGSGVKQTLNFDLLKLAGDVESNPGPSRGHMTEYKPTVRLATRDDVPRAVRTLAAAFADYPATRHTVDPDRHIERVTELQELFLTRVGLDIGKVWVADDGAAVAVWTTPESVEAGAVFAEIGPRMAELSGSRLAAQQQMEGLLAPHRPKEPAWFLATVGVSPDHQGKGLGSAVVLPGVEAAERAGVPAFLETSAPRNLPFYERLGFTVTADVEVPEGPRTWCMTRKPGA
# B4: CD8SP-CD19-hu-mROO5-1-vL-IgCL-TCRg-6MD-F-P2A-SP-CD19-hu-mROO5-1-vH-hTCR-delta-F-F2A-PAC (protein)
# chain: MALPVTALLLPLALLLHAARPDIQMTQSPSSLSASVGDRVTITCKASDHINNWLAWYQQKPGQAPKLLIYGATTLETGVPSRFSGSGSGTDYTLTISSLQPEDFATYYCQQSWNTPWTFGQGTKLEIKRLEGQPKANPTVTLFPPSSEELQANKATLVCLISDFYPGAVTVAWKADGSPVKAGVETTKPSKQSNNKYAASSYLSLTPEQWKSHRSYSCQVTHEGSTVEKTVAPTECSPIKTDVITMDPKDNCSKDANDTLLLQLTNTSAYYMYLLLLLKSVVYFAIITCCLLRRTAFCCNGEKSRAKRSGSGATNFSLLKQAGDVEENPGPTSMDWIWRILFLVGAATGAHSFEQVQLQQPGAELVKPGASVKMSCKASGYAFSSYWINWMKQKPGQGLEWIGQIYPGDGDTNYNGKFKGRATLTADTSSSTAYMQLSSLTSEDSAVYFCARSITTVVGCAMDYWGQGTSVTVSSTRSQPHTKPSVFVMKNGTNVACLVKEFYPKDIRINLVSSKKITEFDPAIVISPSGKYNAVKLGKYEDSNSVTCSVQHDNKTVHSTDFEVKTDSTDHVKPKETENTKQPSKSCHKPKAIVHTEKVNMMSLTVLGLRMLFAKTVAVNFLLTAKLFFLRAKRSGSGVKQTLNFDLLKLAGDVESNPGPSRGHMTEYKPTVRLATRDDVPRAVRTLAAAFADYPATRHTVDPDRHIERVTELQELFLTRVGLDIGKVWVADDGAAVAVWTTPESVEAGAVFAEIGPRMAELSGSRLAAQQQMEGLLAPHRPKEPAWFLATVGVSPDHQGKGLGSAVVLPGVEAAERAGVPAFLETSAPRNLPFYERLGFTVTADVEVPEGPRTWCMTRKPGA
# Test system: RAJI cells
# Test: JNG assay, co-culture with RAJI cells
# Format: cell-based
# Conditions: co-culture with RAJI cells
# Procedure: Cellular supernatant is collected and assayed for the induction of cytokines (e.g., IL2).
# JNG (Jurkat cells expressing EGFP under an NFAT promoter) were infected with lentiviral vectors encoding different single chain and multi-chain SARs by spinfection in the presence of 8 µg/ml of Polybrene® (Sigma, Catalog no. H9268). The Jurkat-NFAT-GFP cells are engineered in such a way that the IL-2 promoter, which carries NFAT binding sites, is cloned upstream of the GFP gene. These cells have been used to study signaling via TCR and CAR. The different SARs were stably expressed in Jurkat NFAT-GFP cells by lentiviral mediated gene transfer, followed by selection with puromycin or blasticidin. No drug selection was used in case the construct lacked an antibiotic resistance gene. The SAR-expressing Jurkat-NFAT-GFP cells were cocultured with the target cells at E:T ratio of approximately 1:2 for approximately 4 hours to 18 hours. When the interaction between SIRs and their target antigen results in activation of the NFAT pathway, GFP expression is induced. […] GFP expression was monitored by FACS analysis. The Jurkat-NFAT-GFP (parental) cells were used as control. The structure of different constructs can be determined based on their names. […] The sequence of the other constructs in the table can be similarly determined from their names and by referring to the different Tables of this disclosure that provide the names and SEQ ID NO of the different modules. Alternatively, the composition and modular architecture of the different SAR constructs can be determined from their sequences by bioinformatics tools, including using nucleic acid and amino acids homology searches. A SAR is considered positive in the assay in case the SAR expressing Jurkat-NFAT-GFP cells show greater % GFP positive cells when cultured with the target cell line as compared to parental Jurkat-NFAT-GFP cells. […] In general, the number +/-, +, 2+, 3+, 4+, 5+ refer to approximately 5%, 10%, 20%, 30%, 40% and 50% GFP positive cells. The % of GFP induction in the above assay is dependent not only the relative strength of the SAR but also, among other factors, on the relative level of expression of the SAR in the JNG cells and the relative level of expression of the target antigen in the target cell line. To control for the difference in gene transduction efficiency of the different SAR constructs, the experiment was conducted with JNG cells transduced with SAR constructs co-expressing a drug resistance gene (e.g., puromycin or PAC) followed by drug selection to generate a stable population of SAR-expressing cells. It is to be noted that the drug resistance gene (e.g., PAC) in the SAR constructs is optional and in vivo studies were conducted with SAR constructs lacking the PAC gene.
row,Molecule,GFP induction / activity
1,B1,retained the ability to respond
2,B2,retained the ability to respond
3,B3,robust GFP induction activity
4,B4,robust GFP induction
